± gives the standard deviation of the averaged measurements.
Experiment: total protein half-life in vivo (active degradation + dilution); higher = more stable protein
[1] = E. coli NCM3722 delta-clpP delta-lon delta-hslV, growth: N-lim chemostat, doubling time 6 h
[2] = E. coli NCM3722 delta-clpP, growth: N-lim chemostat, doubling time 6 h
[3] = E. coli NCM3722 delta-hslV, growth: N-lim chemostat, doubling time 6 h
[4] = E. coli NCM3722 delta-lon, growth: N-lim chemostat, doubling time 6 h
[5] = E. coli NCM3722 delta-smpB, growth: N-lim chemostat, doubling time 6 h
[6] = wild type E. coli NCM3722, growth: C-lim chemostat, doubling time 3 h
[7] = wild type E. coli NCM3722, growth: C-lim chemostat, doubling time 6 h
[8] = wild type E. coli NCM3722, growth: C-lim chemostat, doubling time 12 h
[9] = wild type E. coli NCM3722, growth: N-lim chemostat, doubling time 6 h
[10] = wild type E. coli NCM3722, growth: N-lim chemostat, doubling time 12 h
[11] = wild type E. coli NCM3722, growth: P-lim chemostat, doubling time 6 h
[12] = wild type E. coli NCM3722, growth: P-lim chemostat, doubling time 12 h

Sequence	total protein half-life in vivo [1] [h]	total protein half-life in vivo [2] [h]	total protein half-life in vivo [3] [h]	total protein half-life in vivo [4] [h]	total protein half-life in vivo [5] [h]	total protein half-life in vivo [6] [h]	total protein half-life in vivo [7] [h]	total protein half-life in vivo [8] [h]	total protein half-life in vivo [9] [h]	total protein half-life in vivo [10] [h]	total protein half-life in vivo [11] [h]	total protein half-life in vivo [12] [h]
MRACINNQQIRHHNKCVILELLYRQKRANKSTLARLAQISIPAVSNILQELESEKRVVNIDDESQTRGHSSGTWLIAPEGDWTLCLNVTPTSIECQVANACLSPKGEFEYLQIDAPTPQALLSEIEKCWHRHRKLWPDHTINLALAIHGQVDPVTGVSQTMPQAPWTTPVEVKYLLEEKLGIRVMVDNDCVMLALAEKWQNNSQERDFCVINVDYGIGSSFVINEQIYRGSLYGSGQIGHTIVNPDGVVCDCGRYGCLETVASLSALKKQARVWLKSQPVSTQLDPEKLTTAQLIAAWQSGEPWITSWVDRSANAIGLSLYNFLNILNINQIWLYGRSCAFGENWLNTIIRQTGFNPFDRDEGPSVKATQIGFGQLSRAQQVLGIGYLYVEAQLRQI	6.39 ± 0.56	6.61	5.18 ± 0.99	5.81 ± 0.79	3.95 ± 0.094	> 4	1.97	3	5.48 ± 0.83	7.97	3.12	4.85
MRALLPYLALYKRHKWMLSLGIVLAIVTLLASIGLLTLSGWFLSASAVAGVAGLYSFNYMLPAAGVRGAAITRTAGRYFERLVSHDATFRVLQHLRIYTFSKLLPLSPAGLARYRQGELLNRVVADVDTLDHLYLRVISPLVGAFVVIMVVTIGLSFLDFTLAFTLGGIMLLTLFLMPPLFYRAGKSTGQNLTHLRGQYRQQLTAWLQGQAELTIFGASDRYRTQLENTEIQWLEAQRRQSELTALSQAIMLLIGALAVILMLWMASGGVGGNAQPGALIALFVFCALAAFEALAPVTGAFQHLGQVIASAVRISDLTDQKPEVTFPDTQTRVADRVSLTLRDVQFTYPEQSQQALKGISLQVNAGEHIAILGRTGCGKSTLLQQLTRAWDPQQGEILLNDSPIASLNEAALRQTISVVPQRVHLFSATLRDNLLLASPGSSDEALSEILRRVGLEKLLEDAGLNSWLGEGGRQLSGGELRRLAIARALLHDAPLVLLDEPTEGLDATTESQILELLAEMMREKTVLMVTHRLRGLSRFQQIIVMDNGQIIEQGTHAELLARQGRYYQFKQGL	> 8	6.58 ± 0.21	6.08 ± 0.081	6.01 ± 0.34	5.928 ± 0.023	3.08 ± 0.092	5.92 ± 0.12	–	5.99 ± 0.31	11.7 ± 0.28	6.274 ± 0.058	12.3 ± 1.1
MRDIQMVLERWGAWAANNHEDVTWSSIAAGFKGLITSKVKSRPQCCDDDAMIICGCMARLKKNNSDLHDLLVDYYVVGMTFMSLAGKHCCSDGYIGKRLQKAEGIIEGMLMALDIRLEMDIVVNNSN	2.96	–	–	–	–	–	–	8.73	–	–	5.67	10.4 ± 0.22
MRFCLILITALLLAGCSHHKAPPPNARLSDSITVIAGLNDQLQSWHGTPYRYGGMTRRGVDCSGFVVVTMRDRFDLQLPRETKQQASIGTQIDKDELLPGDLVFFKTGSGQNGLHVGIYDTNNQFIHASTSKGVMRSSLDNVYWQKNFWQARRI	–	1.22	–	0.828	1.61 ± 0.18	0.468 ± 0.23	1.4	> 16	–	4.32	2.28	4.21 ± 0.75
MRFVDEYRAPEQVMQLIEHLRERASHLSYTAERPLRIMEVCGGHTHAIFKFGLDQLLPENVEFIHGPGCPVCVLPMGRIDTCVEIASHPEVIFCTFGDAMRVPGKQGSLLQAKARGADVRIVYSPMDALKLAQENPTRKVVFFGLGFETTMPTTAITLQQAKARDVQNFYFFCQHITLIPTLRSLLEQPDNGIDAFLAPGHVSMVIGTDAYNFIASDFHRPLVVAGFEPLDLLQGVVMLVQQKIAAHSKVENQYRRVVPDAGNLLAQQAIADVFCVNGDSEWRGLGVIESSGVHLTPDYQRFDAEAHFRPAPQQVCDDPRARCGEVLTGKCKPHQCPLFGNTCNPQTAFGALMVSSEGACAAWYQYRQQESEA	5.73	3.17 ± 0.086	2.4	2.92 ± 0.14	–	2.32 ± 0.034	3.94 ± 0.33	5.53 ± 0.43	2.2	2.79	3.08	5.78
MRGKKRIGLLFLLIAVVVGGGGLLLAQKVLHKTSDTAFCLSCHSMSKPFEEYQGTVHFSNQKGIRAECADCHIPKSGMDYLFAKLKASKDIYHEFVSGKIDSDDKFEAHRQEMAETVWKELKATDSATCRSCHSFDAMDIASQSESAQKMHNKAQKDSETCIDCHKGIAHFPPEIKMDDNAAHELESQAATSVTNGAHIYPFKTSHIGELATVNPGTDLTVVDASGKQPIVLLQGYQMQGSENTLYLAAGQRLALATLSEEGIKALTVNGEWQADEYGNQWRQASLQGALTDPALADRKPLWQYAEKLDDTYCAGCHAPIAADHYTVNAWPSIAKGMGARTSMSENELDILTRYFQYNAKDITEKQ	–	–	–	–	–	2.33	4.09	8.13 ± 1.1	–	–	–	–
MRHCGWLLGLLSLFSLATHASDWQEIKNEAKGQTVWFNAWGGDTAINRYLDWVSGEMKTHYAINLKIVRLADAADAVKRIQTEAAAGRKTGGSVDLLWVNGENFRTLKEANLLQTGWAETLPNWRYVDTQLPVREDFSVPTQGAESPWGGAQLTFIARRDVTPQPPQTPQALLEFAKANPGTVTYPRPPDFTGTAFLEQLLIMLTPDPAALKEAPDDATFARVTAPLWQYLDVLHPYLWREGKDFPPSPARMDALLKAGTLRLSLTFNPAHAQQKIASGDLPASSYSFGFREGMIGNVHFVTIPANANASAAAKVVANFLLSPDAQLRKADPAVWGDPSVLDPQKLPDGQRESLQSRMPQDLPPVLAEPHAGWVNALEQEWLHRYGTH	5.63 ± 0.51	6.09 ± 0.099	6.22 ± 0.27	6.17 ± 0.65	5.628 ± 0.055	3.45 ± 0.33	6.17 ± 0.22	13.7 ± 0.41	6.027 ± 0.021	13.4 ± 0.98	6.54 ± 0.45	12.3 ± 1.5

From the supplement of paper PMC11246515
